Data taken from publication PMC4191399.
Numbering of substitutions follows the chain as printed.

How the values were obtained:
[1] = biological target: T1, RIG-I Q784A Q784A (Homo sapiens) (UniProt O95786); experiment: fluorescence polarization; conditions: internal 6-carboxyfluorescein in backbone between U12 and C13 (central tetraloop bases); 25 mM MOPS pH 7.4, 150 mM KCl, 2 mM DTT, 2 mM MgCl2, 0.01% Triton X-100, 1 nM RNA, room temperature, 1 h
T1 sequence: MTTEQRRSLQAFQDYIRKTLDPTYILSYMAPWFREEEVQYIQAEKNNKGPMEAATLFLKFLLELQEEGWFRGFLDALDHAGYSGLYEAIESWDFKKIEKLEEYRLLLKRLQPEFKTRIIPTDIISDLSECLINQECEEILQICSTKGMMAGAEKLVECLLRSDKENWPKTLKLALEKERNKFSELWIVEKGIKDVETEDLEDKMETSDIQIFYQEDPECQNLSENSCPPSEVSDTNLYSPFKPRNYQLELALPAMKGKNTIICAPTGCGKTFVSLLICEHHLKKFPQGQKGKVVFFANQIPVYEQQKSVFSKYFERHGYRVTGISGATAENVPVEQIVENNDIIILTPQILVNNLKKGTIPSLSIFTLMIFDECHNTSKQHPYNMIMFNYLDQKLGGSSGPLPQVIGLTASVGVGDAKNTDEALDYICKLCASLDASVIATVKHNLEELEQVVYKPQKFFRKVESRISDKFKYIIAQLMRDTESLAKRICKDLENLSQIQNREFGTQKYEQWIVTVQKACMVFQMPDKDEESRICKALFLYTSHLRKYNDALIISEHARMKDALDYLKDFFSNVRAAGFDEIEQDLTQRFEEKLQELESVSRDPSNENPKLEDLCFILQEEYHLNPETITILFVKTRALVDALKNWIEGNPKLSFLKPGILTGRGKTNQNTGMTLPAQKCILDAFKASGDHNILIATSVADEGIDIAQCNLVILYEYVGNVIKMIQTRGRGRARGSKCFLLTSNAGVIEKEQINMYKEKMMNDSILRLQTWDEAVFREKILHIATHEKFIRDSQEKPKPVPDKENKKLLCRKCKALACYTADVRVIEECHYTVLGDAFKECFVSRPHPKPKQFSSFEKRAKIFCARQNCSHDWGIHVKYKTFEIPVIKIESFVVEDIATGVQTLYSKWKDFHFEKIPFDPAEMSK

[2] = biological target: T2, RIG-I Q784A/K788A Q784A;K788A (Homo sapiens) (UniProt O95786); experiment: fluorescence polarization; conditions: internal 6-carboxyfluorescein in backbone between U12 and C13 (central tetraloop bases); 25 mM MOPS pH 7.4, 150 mM KCl, 2 mM DTT, 2 mM MgCl2, 0.01% Triton X-100, 1 nM RNA, room temperature, 1 h
T2 sequence: T1 sequence with K788A

In the case of GGACGUACGUUUCGACGUACGUCC [5'OH10L-F], the Kd [1] is reported as 23.8 nM and the Kd [2] is reported as 85.8 nM.
